Reference: US20230192902A1, “ABCG2 EFFLUX PUMP-CANCER ANTIGEN MULTI-SPECIFIC ANTIBODIES AND COMPOSITIONS, REAGENTS, KITS AND METHODS RELATED THERETO” (Kenjockety Biotechnology, Inc., priority 2020, published 2023)

B1: 5D3: anti-ABCG2 antibody 5D3; VH SEQ ID NO:5, VL SEQ ID NO:1; tested with human IgG1 constant regions (antibody, V domains shown)
VH: QVQLQESGPGLVKPSQSLSLTCTVTGFSITSDYAWNWIRQFPGKKLEWMGYINFDGGTTYNPSLRGRISITRDTSKNQFFLQLRSVTPEDTATYYCATFYGAKGTLDYWGQGTSVTVSS
VL: DIVLTQSPSSFSVSLGDRVTISCKASGYILNRLAWYQQKPGNAPRLLISGATSLETGFPSRFSGTGSGKDYTLSISSLQTEDVGTYYCQQYWSTPWTFGGGTKLEIR
modifications: human IgG1 constant regions
notes: anti-ABCG2 antibody 5D3; tested with human IgG1 constant regions
B2: 5D3DDKT14KK5D3: bispecific ABCG2/CD47 antibody: HC and LC from anti-ABCG2 antibody 5D3 and a HC from anti-CD47 antibody 5F9; DD/KK charged pair substitutions (antibody, V domains shown)
VH 1: QVQLQESGPGLVKPSQSLSLTCTVTGFSITSDYAWNWIRQFPGKKLEWMGYINFDGGTTYNPSLRGRISITRDTSKNQFFLQLRSVTPEDTATYYCATFYGAKGTLDYWGQGTSVTVSS
VH 2: QVQLVQSGAEVKKPGASVKVSCKASGYTFTNYNMHWVRQAPGQRLEWMGTIYPGNDDTSYNQKFKDRVTITADTSASTAYMELSSLRSEDTAVYYCARGGYRAMDYWGQGTLVTVSS
VL: DIVLTQSPSSFSVSLGDRVTISCKASGYILNRLAWYQQKPGNAPRLLISGATSLETGFPSRFSGTGSGKDYTLSISSLQTEDVGTYYCQQYWSTPWTFGGGTKLEIR
B3: 5D3hVHv1DDKT14KK5D3hVLv1: bispecific ABCG2/CD47 antibody: humanized 5D3 VH version 1 (DD), 5F9 HC (KK), humanized 5D3 VL version 1 common light chain (antibody, V domains shown)
VH 1: EVQLQESGPGLVKPSETLSLTCTVSGFSITSDYAWNWIRQPPGKGLEWMGYINFDGGTTYNPSLRGRITISRDTSKNQFSLKLSSVTAADTAVYYCATFYGAKGTLDYWGQGTLVTVSS
VH 2: QVQLVQSGAEVKKPGASVKVSCKASGYTFTNYNMHWVRQAPGQRLEWMGTIYPGNDDTSYNQKFKDRVTITADTSASTAYMELSSLRSEDTAVYYCARGGYRAMDYWGQGTLVTVSS
VL: DIQLTQSPSSLSASVGDRVTITCKASGYILNRLAWYQQKPGKAPKLLISGATSLETGFPSRFSGSGSGKDYTLTISSLQPEDFATYYCQQYWSTPWTFGGGTKLEIK
B4: 5D3hVHv2DDKT14KK5D3hVLv1: bispecific ABCG2/CD47 antibody: humanized 5D3 VH version 2 (DD), 5F9 HC (KK), humanized 5D3 VL version 1 common light chain (antibody, V domains shown)
VH 1: EVQLQESGPGLVKPSETLSLTCTVSGFSITSDYAWNWIRQPPGKGLEWIGYINFDGGTTYNPSLRGRVTISRDTSKNQFSLKLSSVTAADTAVYYCATFYGAKGTLDYWGQGTLVTVSS
VH 2: QVQLVQSGAEVKKPGASVKVSCKASGYTFTNYNMHWVRQAPGQRLEWMGTIYPGNDDTSYNQKFKDRVTITADTSASTAYMELSSLRSEDTAVYYCARGGYRAMDYWGQGTLVTVSS
VL: DIQLTQSPSSLSASVGDRVTITCKASGYILNRLAWYQQKPGKAPKLLISGATSLETGFPSRFSGSGSGKDYTLTISSLQPEDFATYYCQQYWSTPWTFGGGTKLEIK

System: 293T_ABCG2_OX cells (293T cells stably transfected to express ABCG2)
Experiment: Topotecan cytotoxicity assay in the presence of antibodies (CellTiter-Glo)
Assay type: cell-based, human
Details: FIG. 1; 293T cells overexpressing ABCG2; 72-96 hr; IC50 values only in the figure
Procedure: Cytotoxicity Assays. The effect of antibodies on topotecan cytotoxicity was evaluated on 293T_ABCG2_OX cells, 293T cells stably transfected to express ABCG2. Cells were plated in 0.05 mL of Assay Media (DMEM +10% FBS) at 5000 cells/well in white, flat bottom 96-well tissue culture plates. Topotecan was prepared at 2X final assay concentration by serial dilution from 200 uM in assay media containing test antibodies or control antibodies at 100 ug/mL (2X final concentration), or Fumitremorgin C (FTC), a small molecule ABCG2 inhibitor at (2X final concentration). An equivalent volume (0.05 mL) of the topotecan/antibody mixture was added to the 293T_ABCG2_OX cells in 96-well plates. The plates were then incubated at 37° C., in 5% CO2. After about 72-96 hr plates were equilibrated to room temperature and cell viability assessed using Promega® CellTiter-Glo® Luminescent Cell Viability Assay according to the manufacturer’s recommended protocol. Luminescence was measured on a Molecular Devices® FlexStation® 3 Multi-Mode Microplate Reader and data analyzed using GraphPad Prism 8.0 software. Half maximal inhibitory concentration (IC50) is the concentration of drug (topotecan or other chemotherapy cytotoxic agent) where the response (cell growth) is reduced by 50%.

Molecule	susceptibility of cells to topotecan in the presence of the antibody
B1	increased susceptibility to topotecan
B2	increased susceptibility to topotecan
B3	increased susceptibility to topotecan
B4	increased susceptibility to topotecan
